Target: T1, BSA (Bos taurus, UniProt P02769)
T1 construct: purchased Sigma-Aldrich A3059
Experiment: Sub-sampled BSA tryptic digest visualised by SDS-PAGE (Deep Purple stain)
Assay type: biochemical, bovine
Protocol: A.3.4 Visualization of Trypsin Digests in SDS-PAGE • 1 The reduced and denatured BSA sample from 3.2 above was diluted 10-fold in 50 mM bicine buffer (25 μL+225 μL bicine buffer). BSA molar concentration was calculated to be approx. 4 μM. • 2 One hundred microliter of the sample (step 1) was added to a 1.5 mL microtube. Controls included a bicine-based digestion buffer and an undigested BSA sample (no trypsin). • 3 Epicocconone stock solution was diluted 100-fold in 50 mM bicine. One hundred microliter of diluted epicocconone solution was added to each corresponding well. The final concentration was 12 μM. […] At each sampling point, 15 μL of the samples were taken out, immediately mixed with 15 μL of a protein gel loading buffer (2×), denatured for 5 min at 85° C., and stored at −80° C. • 6 The sub-samples collected as described above were run by SDS-PAGE (Nupage, 12% BT gel), and gels were stained with Deep Purple for visualization. • 7 The Deep Purple-stained gels were imaged by Typhoon scanner (Ex:Em=532:560 LP; 440 PMT). • 8 All the gel lanes showing digested (FIG. 12A) and undigested (FIG. 12B) protein samples were equally gated, and the fluorescent intensity was measured by ImageQuant (v 5.2) software.
The results from the subsampled reaction was similarly analysed but without the term associated with degradation of the signal with time as this is not relevant in gels. […]

T1 sequence (P02769 25-607): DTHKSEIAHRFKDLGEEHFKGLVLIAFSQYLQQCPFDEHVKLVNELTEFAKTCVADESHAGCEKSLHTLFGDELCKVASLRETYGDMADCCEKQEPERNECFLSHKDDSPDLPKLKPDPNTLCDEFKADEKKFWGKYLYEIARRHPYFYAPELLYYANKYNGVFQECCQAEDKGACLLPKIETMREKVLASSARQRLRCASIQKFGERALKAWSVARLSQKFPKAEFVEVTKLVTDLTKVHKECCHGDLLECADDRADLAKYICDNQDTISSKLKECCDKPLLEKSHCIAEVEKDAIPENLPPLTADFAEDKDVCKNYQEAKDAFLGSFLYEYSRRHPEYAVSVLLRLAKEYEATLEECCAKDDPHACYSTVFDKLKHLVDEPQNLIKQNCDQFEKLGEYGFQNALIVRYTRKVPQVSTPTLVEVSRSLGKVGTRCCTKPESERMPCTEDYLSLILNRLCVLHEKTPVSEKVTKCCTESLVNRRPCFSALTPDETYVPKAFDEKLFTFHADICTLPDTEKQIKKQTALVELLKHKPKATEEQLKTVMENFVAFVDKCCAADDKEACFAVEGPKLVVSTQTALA

B1: trypsin: Proteomics grade trypsin protease, Sigma-Aldrich T6567 (protein, UniProt P00761 9-231, looked up)
Trypsin: IVGGYTCAANSIPYQVSLNSGSHFCGGSLINSQWVVSAAHCYKSRIQVRLGEHNIDVLEGNEQFINAAKIITHPNFNGNTLDNDIMLIKLSSPATLNSRVATVSLPRSCAAAGTECLISGWGNTKSSGSSYPSLLQCLKAPVLSDSSCKSSYPGQITGNMICVGFLEGGKDSCQGDSGGPVVCNGQLQGIVSWGYGCAQKNKPGVYTKVCNYVNWIQQTIAAN
time for digestion to reach completion (SDS-PAGE, bicine and carbonate (NH4HCO3) digestion buffers): 0.5 to 1 h
apparent first order rate constant (sub-sampled reaction, gel fluorescence intensity, 0-128 min): 0.3136 min⁻¹

— patent US20090111104A1, “Method for Monitoring Hydrolytic Activity” (Fluorotechnics Pty Limited, priority 2005, published 2009)
